According to IntAct's records for PubMed 12093730:

B1: Guanine nucleotide exchange factor SopE (Salmonella typhimurium), O52623 (parent)
chain: MTKITLSPQNFRIQKQETTLLKEKSTEKNSLAKSILAVKNHFIELRSKLSERFISHKNTESSATHFHRGSASEGRAVLTNKVVKDFMLQTLNDIDIRGSASKDPAYASQTREAILSAVYSKNKDQCCNLLISKGINIAPFLQEIGEAAKNAGLPGTTKNDVFTPSGAGANPFITPLISSANSKYPRMFINQHQQASFKIYAEKIIMTEVAPLFNECAMPTPQQFQLILENIANKYIQNTP

Variants of: B1
Conditions: with cdc42_human CDC42, P60953
Chain of cdc42_human CDC42, P60953 (P60953 whole entry, looked up): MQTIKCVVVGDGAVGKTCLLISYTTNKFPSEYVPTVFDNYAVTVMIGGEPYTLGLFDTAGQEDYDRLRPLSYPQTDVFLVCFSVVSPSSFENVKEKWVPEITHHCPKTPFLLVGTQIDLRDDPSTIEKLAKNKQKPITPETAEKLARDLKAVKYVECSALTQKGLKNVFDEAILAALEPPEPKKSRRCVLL

| Variant | effect of a mutation on the interaction |
| --- | --- |
| G168A | decreasing interaction |
